Test system: E. coli
Assay: Chloramphenicol resistance conferred by the synthetase (amber suppression in the CAT gene)
Assay type: cell-based
Description: Following mutagenesis, the pool of synthetases was then passed through positive and negative rounds of selection. The positive selection is based on suppression of an amber stop codon at a permissive site (Asp112) in the chloramphenicol acetyltransferase (CAT) gene. When E. coli cells harboring the MjTyrRS mutant library, the mutated CAT gene and a coexpressed Mj amber suppressor tRNACUA were grown on minimal media in the presence of pPRO-Phe (1 mM) and chloramphenicol (80 μg/mL), the only surviving cells are those cells that contain a mutant synthetase that aminoacylates the tRNACUA with either an endogenous amino acid or pPRO-Phe. The synthetase library genes were then transformed into cells containing a mutated gene encoding the toxic protein barnase, which has three amber mutations at permissive sites (Gln2, Asp44, Gly65). The vector carrying the barnase reporter also contained the suppressor tRNA. Growth of these cells in the absence of pPRO-Phe selected against synthetases capable of accepting endogenous amino acids as a substrate. After three rounds of selection, 96 clones were screened for growth rate dependence on the presence or absence of pPRO-Phe, and eight candidate clones were identified and sequenced. The polynucleotide and amino acid sequences of the eight clones is also provided in SEQ ID NOS: 4 through 19. […]

B1: pPRO-PheRS-1: para-propargyloxyphenylalanine aminoacyl-tRNA synthetase isolate-1, derived from wild-type Methanococcus jannaschii tyrosyl tRNA-synthetase (protein)
chain: MDEFEMIKRNTSEIISEEELREVLKKDEKSAAIGFEPSGKIHLGHYLQIKKMIDLQNAGFDIIILLADLHAYLNQKGELDEIRKIGDYNKKVFEAMGLKAKYVYGSPFQFDKDYTLNVYRLALKTTLKRARRSMELIAREDENPKVAEVIYPIMQVNAIHYAGVDVAVGGMEQRKIHMLARELLPKKVVCIHNPVLTGLDGEGKMSSSKGNFIAVDDSPEEIRAKIKKAYCPAGVVEGNPIMEIAKYFLEYPLTIKRPEKFGGDLTVNSYEELESLFKNKELHPMDLKNAVAEELIKILEPIRKRL
modifications: para-propargyloxyphenylalanine aminoacyl-tRNA synthetase derived from M. jannaschii tyrosyl tRNA-synthetase
notes: para-propargyloxyphenylalanine aminoacyl-tRNA synthetase isolate-1, derived from wild-type Methanococcus jannaschii tyrosyl tRNA-synthetase
In the absence of pPRO-Phe
  chloramphenicol resistance on E. coli, IC50: 5 µg/mL
In the presence of pPRO-Phe
  chloramphenicol resistance on E. coli, IC50: 110 µg/mL
